This assay has as its target F8–TNF (murine). Briefly: SEC. In general terms: SEC sorts molecules by how far they enter the pores of the column.

Regarding F8–TNF, the stoichiometry N (in general, the number of molecules, sites or subunits per partner or assembly) amounted to 3.

For the origin of these results see paper PMC3778281.
